Here are results for three molecules from patent JP2018082720A (dated 2018).

Where “and” joins values, the source holds several entries; their conditions need not be identical. Equal entries are not always repeated. Where only a bound is given, the exact number is not on record here.

As usually defined, the Kd is the constant that tells how readily two partners part at equilibrium.

Test [1] deals with T1, human MMP9 (human, UniProt P14780 20-707, limits assumed).
T1 construct: also called ヒトMMP9; matrix metalloproteinase-9
Briefly: direct binding assay and SPR.

In test [2] the target is T1, human MMP9. Kind of test: cell-based or functional assay.
Test [3] concerns the target T1, human MMP9. Briefly: SPR.
The target in test [4] is T1, human MMP9. Kind of test: ELISA.
Another test has as its target T2, rat MMP9 (rat, UniProt P50282 20-708, limits assumed).
T2 construct: also called ラットMMP9; recombinant rat MMP9
Briefly: ELISA.

For another test, the target named is T3, cynomolgus monkey MMP9 (cynomolgus monkey, UniProt A0A2K5UU71 20-706).
T3 construct: also called カニクイザルMMP9; recombinant cynomolgus MMP9
Kind of test: ELISA.

In test [5] the target is T4, mouse MMP9 (mouse, UniProt P41245 20-730, limits assumed). Kind of test: cell-based or functional assay.
Test [6] deals with T4, mouse MMP9. Briefly: ELISA. For orientation: ELISA stands for enzyme-linked immunosorbent assay.

T1 sequence (P14780 20-707 Q279R/R574P limits assumed): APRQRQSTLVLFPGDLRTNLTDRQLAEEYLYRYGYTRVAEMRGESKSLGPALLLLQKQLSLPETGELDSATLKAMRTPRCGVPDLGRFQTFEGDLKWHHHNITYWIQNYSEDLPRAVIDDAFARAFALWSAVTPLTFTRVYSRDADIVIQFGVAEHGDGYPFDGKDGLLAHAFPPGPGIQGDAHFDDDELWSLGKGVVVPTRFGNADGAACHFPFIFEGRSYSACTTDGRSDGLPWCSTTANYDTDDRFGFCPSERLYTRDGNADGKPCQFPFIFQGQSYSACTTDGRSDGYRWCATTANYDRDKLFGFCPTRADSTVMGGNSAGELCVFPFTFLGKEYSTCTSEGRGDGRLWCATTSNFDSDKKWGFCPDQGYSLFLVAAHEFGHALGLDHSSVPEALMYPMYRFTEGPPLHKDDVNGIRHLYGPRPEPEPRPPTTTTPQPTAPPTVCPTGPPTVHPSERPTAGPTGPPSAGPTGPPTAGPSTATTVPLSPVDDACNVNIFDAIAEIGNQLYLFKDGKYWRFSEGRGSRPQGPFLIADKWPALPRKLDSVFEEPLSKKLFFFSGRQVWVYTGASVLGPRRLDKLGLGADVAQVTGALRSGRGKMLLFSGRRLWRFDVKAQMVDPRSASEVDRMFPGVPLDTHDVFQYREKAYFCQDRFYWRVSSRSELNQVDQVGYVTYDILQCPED
T2 sequence (P50282 20-708 limits assumed): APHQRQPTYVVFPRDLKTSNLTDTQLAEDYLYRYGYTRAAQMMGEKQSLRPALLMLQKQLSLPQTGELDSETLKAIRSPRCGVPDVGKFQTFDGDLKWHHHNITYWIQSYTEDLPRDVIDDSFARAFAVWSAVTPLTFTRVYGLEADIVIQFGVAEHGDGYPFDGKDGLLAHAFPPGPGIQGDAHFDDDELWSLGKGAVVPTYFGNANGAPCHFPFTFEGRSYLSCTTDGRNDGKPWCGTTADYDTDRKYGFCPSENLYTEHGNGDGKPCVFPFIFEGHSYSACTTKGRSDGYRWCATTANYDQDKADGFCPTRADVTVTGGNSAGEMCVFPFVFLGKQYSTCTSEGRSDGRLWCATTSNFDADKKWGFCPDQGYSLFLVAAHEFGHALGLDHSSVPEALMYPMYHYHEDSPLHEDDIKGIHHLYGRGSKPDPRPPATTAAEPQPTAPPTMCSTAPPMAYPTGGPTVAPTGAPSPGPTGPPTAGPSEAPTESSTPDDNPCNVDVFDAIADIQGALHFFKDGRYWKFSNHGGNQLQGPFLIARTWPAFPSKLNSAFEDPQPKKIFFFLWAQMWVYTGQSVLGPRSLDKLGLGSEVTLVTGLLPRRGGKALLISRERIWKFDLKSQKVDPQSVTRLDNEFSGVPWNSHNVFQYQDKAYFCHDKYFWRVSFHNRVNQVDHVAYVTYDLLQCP
T4 sequence (P41245 20-730 limits assumed): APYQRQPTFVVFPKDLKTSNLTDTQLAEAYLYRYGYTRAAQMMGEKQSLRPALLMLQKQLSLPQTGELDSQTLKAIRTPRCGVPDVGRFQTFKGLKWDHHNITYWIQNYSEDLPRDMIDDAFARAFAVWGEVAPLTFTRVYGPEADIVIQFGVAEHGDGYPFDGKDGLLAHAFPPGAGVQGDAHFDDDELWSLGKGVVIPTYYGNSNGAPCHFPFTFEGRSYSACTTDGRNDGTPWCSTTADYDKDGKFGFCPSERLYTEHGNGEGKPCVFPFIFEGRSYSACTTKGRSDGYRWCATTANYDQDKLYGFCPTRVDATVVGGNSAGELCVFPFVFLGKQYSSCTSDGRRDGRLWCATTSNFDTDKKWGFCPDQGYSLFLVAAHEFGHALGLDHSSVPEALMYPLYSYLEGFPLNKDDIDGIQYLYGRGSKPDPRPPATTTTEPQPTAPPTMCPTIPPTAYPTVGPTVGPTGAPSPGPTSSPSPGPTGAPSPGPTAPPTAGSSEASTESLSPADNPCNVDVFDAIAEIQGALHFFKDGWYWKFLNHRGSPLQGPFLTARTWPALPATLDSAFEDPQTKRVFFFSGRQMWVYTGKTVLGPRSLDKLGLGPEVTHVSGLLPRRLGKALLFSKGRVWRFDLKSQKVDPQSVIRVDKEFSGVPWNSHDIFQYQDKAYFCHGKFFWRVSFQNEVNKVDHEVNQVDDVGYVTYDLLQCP
T3 sequence (A0A2K5UU71 entry or part of it): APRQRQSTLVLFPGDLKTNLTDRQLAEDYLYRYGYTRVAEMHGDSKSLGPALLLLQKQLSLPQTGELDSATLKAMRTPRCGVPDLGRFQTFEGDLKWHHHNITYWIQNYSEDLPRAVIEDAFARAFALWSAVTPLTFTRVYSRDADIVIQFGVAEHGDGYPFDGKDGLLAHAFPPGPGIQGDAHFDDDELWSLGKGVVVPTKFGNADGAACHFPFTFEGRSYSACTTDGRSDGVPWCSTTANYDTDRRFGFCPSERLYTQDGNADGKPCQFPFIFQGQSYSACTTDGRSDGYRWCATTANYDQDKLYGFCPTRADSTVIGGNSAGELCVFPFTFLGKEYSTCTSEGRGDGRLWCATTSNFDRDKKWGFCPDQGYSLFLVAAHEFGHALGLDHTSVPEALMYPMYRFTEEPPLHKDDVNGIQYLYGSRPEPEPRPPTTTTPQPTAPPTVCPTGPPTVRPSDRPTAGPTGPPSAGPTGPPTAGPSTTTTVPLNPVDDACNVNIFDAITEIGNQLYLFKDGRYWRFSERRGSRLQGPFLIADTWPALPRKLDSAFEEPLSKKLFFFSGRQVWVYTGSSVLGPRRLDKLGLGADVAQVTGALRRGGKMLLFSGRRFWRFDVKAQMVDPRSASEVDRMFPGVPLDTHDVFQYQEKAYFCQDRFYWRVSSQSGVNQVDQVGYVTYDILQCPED

B1: AB0045 (antibody, V domains shown)
VH: QVQLQESGPGLVKPSETLSLTCTVSGFSLLSYGVHWVRQPPGKGLEWLGVIWTGGTTNYNSALMSRFTISKDDSKNTVYLKMNSLKTEDTAIYYCARYYYGMDYWGQGTLVTVSS
VL: DIQMTQSPSSLSASVGDRVTITCKASQDVRNTVAWYQQKPGKAPKLLIYSSSYRNTGVPDRFSGSGSGTDFTLTISSLQAEDVAVYYCQQHYITPYTFGGGTKVEIKR
notes: Humanized, modified human IgG4 (S241P) / kappa; also called AB0045; humanized variant anti-MMP9 antibody
As for B1, the dissociation constant (Kd) with human MMP9 [1] is approximately 0.001 nM; with human MMP9 [3], 0.0088 nM; with human MMP9 [4], < 0.4 nM and 0.168 nM; with rat MMP9, less than 0.4 nM; with cynomolgus monkey MMP9, less than 0.4 nM. Moreover, in the test with human MMP9 [2], the “IC50, MMP9-mediated cleavage of fluorogenic peptide substrate Mca-PLGL-Dpa-AR-NH2” value (shortened to “IC50, MMP9-mediated cleavage”) came to 0.691 nM. Moreover, in the test with human MMP9 [2], the “IC50, MMP9 enzyme assay under steady state” value was 0.148 nM and 0.161 nM and 0.158 nM.

B2: AB0046 (antibody, V domains shown)
VH: QVQLQQPGSVLVRPGASVKLSCTASGYTFTSYWMNWVKQRPGQGLEWIGEIYPISGRTNYNEKFKVKATLTVDTSSSTAYMDLNSLTSEDSAVYYCARSRANWDDYWGQGTTLTVSS
VL: DIQMTQTTSSLSASLGDRVTISCSASQGISNYLNWYQQKPDGTFKLLIYYTSILHSGVPSRFSGSGSGTDYSLTISNLEPEDIATYYCQQYGWLPRTFGGGTKLEIKR
notes: Mouse IgG1 / kappa; also called AB0046; anti-mouse MMP9 antibody
Regarding B2, in the test with mouse MMP9 [5], the “IC50, MMP9-mediated cleavage” value came to 0.352 nM. This molecule also came in with a Kd with mouse MMP9 [6] of 0.218 nM.

B3: AB0041 (antibody, V domains shown)
VH: QVQLKESGPGLVAPSQSLSITCTVSGFSLLSYGVHWVRQPPGKGLEWLGVIWTGGTTNYNSALMSRLSISKDDSKSQVFLKMNSLQTDDTAIYYCARYYYGMDYWGQGTSVTVSS
VL: DIVMTQSHKFMSTSVGDRVSITCKASQDVRNTVAWYQQKTGQSPKLLIYSSSYRNTGVPDRFTGSGSGTDFTFTISSVQAEDLAVYFCQQHYITPYTFGGGTKLEIKR
As for B3, in the test with human MMP9 [2], the “IC50, MMP9-mediated cleavage” value amounted to 0.569 nM. In addition, the values for the Kd in the test with human MMP9 [3], with rat MMP9 and in the test with cynomolgus monkey MMP9 were 0.0004 nM, less than 0.4 nM and less than 0.4 nM, respectively.
